From article PMC4635203

Experiments:
[1] = molecular target: T1, LUZ24 gp4 (Mip) (Pseudomonas phage LUZ24) (UniProt A9J6U1); assay: EMSA
T1 sequence: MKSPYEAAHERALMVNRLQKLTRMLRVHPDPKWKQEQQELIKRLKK

[2] = molecular target: T2, MvaT-His (Pseudomonas aeruginosa (PAO1?)) (UniProt Q9HW86); assay: EMSA
T2 sequence: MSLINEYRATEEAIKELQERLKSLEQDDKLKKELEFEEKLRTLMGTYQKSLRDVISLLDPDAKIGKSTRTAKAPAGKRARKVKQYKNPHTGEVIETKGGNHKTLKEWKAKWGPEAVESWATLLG

[3] = molecular target: LUZ24 gp4 (yeast two-hybrid bait) (Pseudomonas aeruginosa phage LUZ24); assay: two-hybrid; alpha-galactosidase activity of the yeast two-hybrid pairs, in milliunits per ml per cell, for a relative comparison of interaction strengths

“CATGAGGCCAGGACGTTGTTCATGAAAACCGAATAATCGTTTCGAATGATGGTTTGCAATTATTAATGTCGAATGGAATGAATGTGCCATATCTCCATAAATAAAAAGGAAGTTTGTCCAATACTTGAGAAACTACTTTAAGAAGGTTTTGTCGGTAGAAAGCGATCAATC (double strand) [ptxS upstream region 150 bp]” was tested, and the binding [1] was “no binding” and the binding [2] was “binds”.

B1: MvaT (PA4315) prey fragment, amino acids 1-80 (domain or fragment)
chain: MSLINEYRATEEAIKELQERLKSLEQDDKLKKELEFEEKLRTLMGTYQKSLRDVISLLDPDAKIGKSTRTAKAPAGKRAR
Molecule B1 has a α-Gal activity (milliunits per ml per cell) [3] of 23.1.
